The text below walks through data of PMC9573943, “Contribution of the 12–17 hydrophobic region of islet amyloid polypeptide in self-assembly and cytotoxicity” (Frontiers in Molecular Biosciences, 2022).

“Also recorded” adds a separate entry of the source. Bridge positions count the residues as written; N and C are the ends. Ends that are not written are not given here.

Data set [1] in a line: Solubility and self-assembly of the IAPP12-17 fragment (CD, ThT, ANS, TEM). The class given is physicochemical. Here is the method:
(§1) Solutions were prepared by dissolving the peptide at a concentration of 50 μM in 20 mM Tris-HCl, pH 7.4, and were incubated at room temperature without agitation in 1.5 ml Eppendorf microtubes. For IAPP12-17, the lyophilized peptide was dissolved in 20 mM acetate pH 6.5 in the presence of 3% DMSO, or HFIP, at a final concentration of 500 μM and the peptide solution was incubated at 37 °C under constant rotational agitation.
(§2) At the indicating time of incubation, peptide solutions were diluted to 25 μM in presence of 40 μM ThT, or 25 μM 8-anilino-1-naphthalenesulfonic acid (ANS). Fluorescence was measured in 10-mm pathlength microcells using a PTI QuantaMaster spectrofluorometer. For ThT, excitation was set at 440 nm, and the emission spectrum from 450 to 550 nm was recorded. For ANS, the excitation was set at 355 nm, and the emission scan was recorded from 385 to 585 nm.
(§3) After incubation, peptide solutions were diluted in water to 25 μM and incorporated into a 2-mm path length quartz cell. For IAPP12-17, the solution was diluted to 150 μM. Far-UV CD spectra were recorded from 190 to 260 nm using a Jasco J-815 CD spectropolarimeter at 25°C. The wavelength step was set at 0.5 nm with an average time of 10 s per scan at each wavelength. Spectra were background-subtracted with buffer solution. Raw data were converted to mean residue ellipticity (MRE): MRE=Mean residue weight (g/mol)X CD signal (deg)/10 X pathlength (cm) X peptide concentration (g/mL)
(§4) After incubation, peptide solutions were diluted to 10 μM, or 100 μΜ for IAPP12-17, before being applied on glow-discharged carbon films on 300-mesh copper grids. Samples were adsorbed and negatively stained with 1.5% uranyl formate for 45 s. Images were recorded using a FEI Tecnai G2 Spirit Twin microscope operating at 120 kV and equipped with a Gatan Ultrascan scan 4,000 4k × 4k CCD camera system.

For data set [2] the following is noted: cited from earlier work. From the text: Countless studies have highlighted the key contributions of the 20–29 domain for IAPP self-assembly, often referred to as the amyloidogenic core ([Glenner et al., 1988]). The fact that the sequence from rodent IAPP (rIAPP) includes three β-breaker prolines within the 20-29 region, and is non-amyloidogenic and poorly toxic, further highlights the critical role of this segment ([Moriarty and Raleigh, 1999]; [Tomasello et al., 2014]).

Data set [3] is described as follows: TFE titration by far-UV CD spectroscopy (helical folding). The class given is physicochemical. The following applies: ellipticity at 222 nm, Tris-HCl 20 mM, TFE titration (0 to 30% TFE). Here is the method: as §3
The test system of data set [4] is INS-1E cells. Briefly: Cell viability by resazurin reduction. The class given is cell-based, Rat. The following applies: freshly dissolved peptide up to 50 μM, 24 h, at least five assays. The protocol:
(§5) Rat INS-1E cells were cultured in treated black-wall clear-bottom 96-well plates at a density of 25,000 cell/well in RPMI-1640 medium supplemented with 10% FBS, 2 mM L-glutamine, 100 U/ml penicillin, 100 μg/ml streptomycin, 10 mM HEPES, 1 mM sodium pyruvate and 50 μM β-mercaptoethanol. After 48 h of incubation at 37°C in 5% CO2, cells were treated with 50 μL of peptide freshly dissolved in 20 mM Tris-HCl, pH 7.4. […] Cell viability (%) was calculated from the ratio of the fluorescence of the treated cells to the vehicle-treated cells. Data of at least five assays performed with different peptide lots were averaged and expressed as the mean ± S.D. Statistical analysis was performed using Student’s t test, and statistically significant difference was established at (*) p < 0.05; (**) p < 0.005; (***) p < 0.0005. For Live/Dead viability assay, cells were plated in 12-well plates at density of 250,000 cell/well for 48 h before treatment with 25 μM peptide.

Data set [5] in a line: Peptide self-assembly under fully quiescent conditions (CD, ThT and ANS fluorescence, TEM, AFM). In kind it is physicochemical. The following applies: 50 μM peptide; for Assemblies observed by TEM after 48 h incubation / Overall effect of the substitution on amyloid formation, in words: 20 mM Tris-HCl pH 7.4, quiescent; for Assemblies observed by TEM after 48 h incubation: negative stain TEM; for Overall effect of the substitution on amyloid formation, in words: CD, ThT, ANS, TEM, compared with unmodified IAPP. The protocol: as §1, §2, §3, §4
After incubation, peptide solutions were diluted in 1% acetic acid to a concentration of 7.5 μΜ. […] Images were recorded using Veeco/Bruker multimode AFM instrument using ScanAsyst-air mode with a silicon tip (2–12 nm tip radius, 0.4 N/m force) on a nitride lever. Images were taken at 0.977 Hz and 512 scan/min.

A short description of data set [6]: Kinetics of amyloid formation monitored by ThT fluorescence. The class given is physicochemical. The conditions noted are these: 40 μM ThT, 20 mM Tris-HCl pH 7.4, 25°C, no agitation. The protocol:
Aggregation mixtures were prepared by dissolving the lyophilized peptide at a concentration of 50 μM in 20 mM Tris-HCl, pH 7.4. Assays were performed at 25°C without stirring in sealed black-wall clear-bottom 96-well nonbinding surface plates with 100 μL/well. Final peptide concentrations were 12.5 and 25 μM, and thioflavin T (ThT) concentration was fixed at 40 μM. Fluorescence was measured every 10 min (excitation: 440 nm, emission: 485 nm) and data from triplicate wells were averaged, corrected by subtracting the blank control, and plotted as ThT fluorescence vs. time. Data were normalized with maximum ThT fluorescence intensity obtained for unmodified IAPP. Data were fitted to a sigmoidal Boltzmann model: Y=Yo+(Ymax−Yo)/1+e^−(T−T50)/ K where T 50 is the time required to reach half of the maximum fluorescence intensity, k is the apparent first-order constant, and Y max and Y 0 are the maximum and initial ThT fluorescence values. Lag time corresponds to T50 - 2/k. Data of at least six assays performed with different peptide lots were averaged and expressed as the mean ± S.D. Statistical analysis was performed using Student’s t test, and statistically significant difference between IAPP and analogs was established at (*) p < 0.05; (**) p < 0.005; (***) p < 0.0005.

Data set [7] is described as follows: Lipid membrane leakage (calcein-loaded LUVs). The following applies: 25 μM peptide, 500 μM phospholipids, LUVs DOPC:DOPG 9:1, 20 mM Tris-HCl, 150 mM NaCl, pH 7.4, read every 10 min over 24 h; IAPP value reached after 10 h; at least four assays. The protocol:
Large unilamellar vesicles (LUVs) were assembled from 1,2-Dioleoyl-sn-glycero-3-phosphocholine (DOPC) and 2-dioleoyl-sn-glycero-3-phospho-(1′-rac-glycerol) (DOPG) at a 9:1 M ratio (DOPC:DOPG). Lipids were solubilized in 100% chloroform, which was then evaporated. […] The lipid mixture was freeze-thawed five times before being extruded through a 100 nm membrane for 20 cycles. Nonencapsulated calcein was removed by gel filtration using a Sephadex G25 fine resin and 20 mM Tris-HCl, 150 mM NaCl, pH 7.4, as elution buffer. Final lipid concentration was determined by a colorimetric assay ([Babych et al., 2021]). Lyophilized peptides were solubilized in 20 mM Tris-HCl, 150 mM NaCl, pH 7.4, at 50 μM prior to dilution into calcein-LUVs, to reach 25 μM peptide and 500 μM phospholipids. Fluorescence was monitored in sealed black-wall, clear-bottom 96-well non-binding surface plates with 100 μL/well. […] 100% leakage (Fmax) was determined with 0.2% Triton X-100 and LUV leakage was reported using:
Membrane leakage (%) = (F−F baseline)/(F max−F baseline)
Data of at least four assays with different peptide lots were averaged and expressed as the mean ± S.D. Statistical analysis was performed using Student’s t test, and statistically significant difference was established at (*) p < 0.05; (**) p < 0.005; (***) p < 0.0005.

The test system of data set [8] is INS-1E cells. In words: Live/Dead viability assay (calcein-AM / ethidium homodimer-1, fluorescence microscopy). The class given is cell-based, Rat. The conditions noted are these: 25 μM freshly solubilized peptide, 24 h, calcein-AM (green, live) and ethidium homodimer-1 (red, dead). Here is the method:
as §5

Setting [9] is: 20 mM Tris-HCl pH 7.4, room temperature, no agitation.

Turning to “LANFLV [IAPP12-17, short C-amidated peptide encompassing the 12–17 segment (LANFLV) of IAPP]”, the “ThT and ANS fluorescence of the aggregates” value in data set [1] (500 μM peptide incubated at 37 °C, diluted to 25 μM with 40 μM ThT or 25 μM ANS) was “ThT and ANS negative”. The “Assemblies observed by TEM after 7 days incubation” value in data set [1] (500 μM peptide, 20 mM acetate pH 6.5, 3% HFIP or 3% DMSO, 37 °C, constant agitation, longer fibrils with HFIP) was “laterally aligned rod-like fibrils”. The “Secondary structure over incubation time (far-UV CD)” value in data set [1] (500 μM peptide, 20 mM acetate pH 6.5, 3% HFIP, 37 °C, constant rotary agitation) is “mainly a random coil secondary structure after its solubilization, which evolves into β-sheet after prolonged incubation times”. Further, the “Solubility, in words” value in data set [1] (lyophilized/monomerized peptide, needed HFIP or DMSO before dilution in 20 mM acetate buffer pH 6.5) is listed as “poor solubility”.
In the case of “ANFLV [pentapeptide corresponding to the segment 13-17 of IAPP, from a recent study]”, the “Fibril formation of the 13-17 pentapeptide” value in data set [2] (several days of incubation, ref Rozniakowski et al., 2020) is reported as “did not form fibrils”.
As for “F15G: full-length IAPP with Gly at position Phe15 (KCNTATCATQRLANGLVHSSNNFGAILSSTNVGSNTY; disulfide 2-7; ends not checked; UniProt P10997 34-70, looked up, variant F15G)”, the “TFE-induced helical folding compared with unmodified IAPP, in words” value (from here on “TFE-induced helical folding”) in data set [3] is given as “destabilizes the propensity of IAPP to adopt an α-helix”. In the data set on INS-1E cells [4], the “Cytotoxicity compared with unmodified IAPP, in words” value is “significantly reduced IAPP cytotoxicity”. Moreover, in data set [5], the “Assemblies observed by TEM after 48 h incubation” value is “no aggregates could be detected” and the “Overall effect of the substitution on amyloid formation, in words” value (“Overall effect of the substitution” below) is “delayed IAPP amyloid formation”. For the same substance, the “Assemblies observed by TEM after 168 h (7 days) incubation” value in data set [5] (setting [9]) is “some partially dispersed amyloid fibrils”.
For “L16G: full-length IAPP with Gly at position Leu16 (KCNTATCATQRLANFGVHSSNNFGAILSSTNVGSNTY; disulfide 2-7; ends not checked; UniProt P10997 34-70, looked up, variant L16G)”, in data set [3], the “TFE-induced helical folding” value is listed as “destabilizes the propensity of IAPP to adopt an α-helix”. Moreover, the “Cytotoxicity compared with unmodified IAPP, in words” value in the data set on INS-1E cells [4] is on record as “significantly reduced IAPP cytotoxicity”. In data set [5], the “Assemblies observed by TEM after 48 h incubation” value is recorded as “Oligomer-like structures” and the “Overall effect of the substitution” value is reported as “delayed IAPP amyloid formation”.
With “N14G: full-length IAPP with Asn14 substituted by Gly (KCNTATCATQRLAGFLVHSSNNFGAILSSTNVGSNTY; disulfide 2-7; ends not checked; UniProt P10997 34-70, looked up, variant N14G)”, the “TFE-induced helical folding” value in data set [3] is “destabilizes the propensity of IAPP to adopt an α-helix”. In addition, the “Cytotoxicity compared with unmodified IAPP, in words” value in the data set with INS-1E cells [4] is given as “significantly reduced IAPP cytotoxicity; also recorded: poorly toxic for pancreatic cells, even at 50 μM”. Further, the “Assemblies observed by TEM after 48 h incubation” value in data set [5] was “short, less defined, and twisted”. Further, the “Secondary conformation / conformational transition over incubation (far-UV CD), in words” value in data set [5] (20 mM Tris-HCl pH 7.4, room temperature, fully quiescent, up to 7 days) is listed as “delayed the random coil-to-β-sheet shift”.
In the case of “rIAPP: rodent IAPP, includes three β-breaker prolines within the 20-29 region”, the “Amyloidogenicity of rodent IAPP” value in data set [2] (ref Moriarty and Raleigh, 1999, Tomasello et al., 2014) was “non-amyloidogenic”.
“F15A: full-length IAPP with Phe15 replaced by alanine (KCNTATCATQRLANALVHSSNNFGAILSSTNVGSNTY; disulfide 2-7; ends not checked; UniProt P10997 34-70, looked up, variant F15A)”: in data set [6] (12.5 μM peptide), the “Increase of ThT fluorescence signal” value is on record as “no increase of ThT fluorescence signal could be detected”. Also, in data set [6] (25 μM peptide, nonbinding surface 96-well plate, read every 10 min, lag time = T50 - 2/k, mean ± S.D. of at least six assays), the “Lag time of amyloid formation” value is 14.2 ± 2.2 h. Also, the “Cytotoxicity compared with unmodified IAPP, in words” value in the data set with INS-1E cells [4] was “reduced IAPP toxicity”. For the same substance, the “Maximum membrane leakage (calcein fluorescence, % of that with Triton X-100)” value in data set [7] was 55%. The “Cell death in Live/Dead assay, in words” value in the data set with INS-1E cells [8] is given as “decreased toxicity compared to unmodified IAPP”. Moreover, in data set [5], the “Assemblies observed by TEM after 48 h incubation” value is reported as “no fibrillar aggregates could be observed”; the “Overall effect of the substitution” value is “delayed the appearance of ThT and ANS-positive signals, and β-sheet-rich assemblies”. For the same substance, the “Assemblies observed by AFM after 96 h incubation” value in data set [5] (20 mM Tris-HCl pH 7.4, room temperature, no agitation, 96 h) is given as “only small aggregates”. Also, the “Assemblies observed by TEM after 168 h (7 days) incubation” value in data set [5] (setting [9]) is “amyloid fibrils could be observed”.
